Reference: patent US20110236390A1 (Janssen / Centocor, published 2011)
Numbering of substitutions follows the chain as printed.

T1: cynomolgus IL-17A (cynomolgus, UniProt Q16552 24-155 (human entry), limits assumed)
T1 construct: also called cyno IL-17A; cynoIL-17A
T1 chain: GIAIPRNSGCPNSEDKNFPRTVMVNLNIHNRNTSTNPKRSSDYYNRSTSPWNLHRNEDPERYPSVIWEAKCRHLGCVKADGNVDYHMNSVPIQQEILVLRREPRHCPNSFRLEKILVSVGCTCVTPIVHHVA

T2: human IL-17A (human, UniProt Q16552 24-155)
T2 sequence: T1 chain with A3T, S8P, S34N, V77I, K78N, R104P

T3: rhIL-17A/F heterodimer (R&D Systems) (human, UniProt Q16552 20-155; Q96PD4 31-163, limits assumed)
T3 sequence (looked up) 1: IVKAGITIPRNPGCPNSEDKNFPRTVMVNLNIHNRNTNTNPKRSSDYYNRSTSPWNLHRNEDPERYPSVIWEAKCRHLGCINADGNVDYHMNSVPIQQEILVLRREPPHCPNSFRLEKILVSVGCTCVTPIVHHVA
T3 sequence (looked up) 2: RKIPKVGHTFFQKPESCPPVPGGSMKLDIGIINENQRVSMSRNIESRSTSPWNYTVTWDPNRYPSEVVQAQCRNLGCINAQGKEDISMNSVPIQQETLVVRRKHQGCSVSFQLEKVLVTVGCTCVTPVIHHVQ

B1: mAb7146 (antibody, human IgG1, lambda, V domains shown)
VH: QVQLLESGGGLVQPGGSLRLSCAASGFTFSSYAMSWVRQAPGKGLEWVSTISMTSGFTYYADSVKGRFTISRDNSKNTLYLQMNSLRAEDTAVYYCARQLTLDVWGQGTLVTVSS
VL: QSVLTQPPSVSVAPGQTARISCSGDNLGDKYANWYQQKPGQAPVLVIYDDIDRPSGIPERFSGSNSGNTATLTISGTQAEDEADYYCGSYDFFLGLIVFGGGTKLTVLG
notes: Framework-engineered mAb; also called engineered form of MOR8160
B2: mAb5548 (antibody, human IgG1, lambda, V domains shown)
VH: B1 VH with M53L
VL: B1 VL
notes: Framework-engineered mAb
B3: mAb6785 (antibody, human IgG1, lambda, V domains shown)
VH: B1 VH with M53L
VL: B1 VL with L96M
notes: Framework-engineered mAb; also called engineered form of MOR8302
B4: mAb1926 (antibody, human IgG1, lambda, V domains shown)
VH: B1 VH with T101M
VL: B1 VL with L96M
notes: Framework-engineered mAb; also called mAbtr1926; engineered form of MOR7700
B5: Fab6468, a recombinant His6-tagged Fab of mAb6785 (Fab, V domains shown)
VH: B1 VH with M53L
VL: B1 VL with L96M
B6: mAb4538 (antibody, human IgG1, lambda, V domains shown)
VH: QVQLQQSGPGLVKPSQTLSLTCAISGDSVSSSSAAWGWIRQSPSRGLEWLGRISYRSKWYNDYAVSVKSRITINPDTSKNQFSLQLNSVTPEDTAVYYCAREVDSMYYSYFDIWGQGTLVTVSS
VL: EIVLTQSPATLSLSPGERATLSCRASQNVWAFYLAWYQQKPGQAPRLLIYGASNRATGIPARFSGSGSGTDFTLTISSLEPEDFAVYYCQQYRSTLSLTFGQGTKVEIKG
notes: Framework-engineered mAb; also called engineered form of MOR7706
B7: mAb732 (antibody, human IgG1, lambda, V domains shown)
VH: B6 VH
VL: B6 VL with Q90T, R93Y, T95S, L96P
notes: Framework-engineered mAb; also called engineered form of MOR7775
B8: mAb4168 (antibody, human IgG1, lambda, V domains shown)
VH: B6 VH with M106T
VL: B6 VL with Q90T, R93Y, T95S, L96P
notes: Framework-engineered mAb; also called engineered form of MOR8103
B9: mAb3584 (antibody, human IgG1, lambda, V domains shown)
VH: B6 VH with M106I
VL: B6 VL
notes: Framework-engineered mAb; also called engineered form of MOR8299

Biological target: T1, cynomolgus IL-17A
Assay: SPR Biacore 3000, antibody captured, IL-17 in solution
Description: (§1) Affinity measurements using Surface Plasmon Resonance (SPR) were performed using a Biacore 3000 optical biosensor (Biacore).

Kd [nM]	Stoichiometry [dimers per anti-IL-17]	Binder
0.05	2	B1
0.225	1.9	B2
0.148	2.2	B3
0.018	2.3	B4

Biological target: T1, cynomolgus IL-17A
Assay: SPR Biacore 3000, Fab captured, IL-17 in solution
Description: as §1

Kd [nM]	Binder
0.205	B5

Biological target: T1, cynomolgus IL-17A
Assay: cell-based or functional assay

IL-6 production (NHDF), IC50 [nM]	IL-8 production (NHDF), IC50 [nM]	Binder
0.847	1.75	B6
2.02	12.5	B7
2.17	3.3	B8
0.823	1.25	B9
0.139	0.14	B1
0.193	0.563	B3
0.067		B4

Biological target: T2, human IL-17A
Assay: binding ELISA, IL-17A protein coated on micro-titer plate, serial dilutions of labeled mAb1926, 37 C 2 h
Excerpt: Human, mouse and rat IL-17A proteins were coated on the micro-titer plates.

binding result	Binder
binds	B4

Biological target: T1, cynomolgus IL-17A
Assay: competition ELISA: mAb against biotinylated cyno IL-17A binding to coated IL-17RA-Fc
Description: Clear maxisorp plates were coated with 100 μl/well of 2.5 μg/ml human IL-17RA-Fc (R&D Systems, Minneapolis, Minn.) in 0.1 M sodium carbonate-bicarbonate buffer, pH 9.4 and incubated overnight at 4° C. […] The signal was detected with 100 μl of 1:10,000 dilution of 1 mg/ml SA-HRP (Jackson Immunoresearch, West Grove, Pa.) for 20 minutes at room temperature (RT) followed by 100 μl/well of OPD substrate (Sigma-Aldrich Corp., St. Louis, Mo.).

IC50 [nM]	Binder
0.636	B6
0.463	B7
0.764	B8
0.489	B9
0.067	B1
0.076	B3
0.053	B4

Biological target: T3, rhIL-17A/F heterodimer (R&D Systems)
Assay: cell-based or functional assay

IL-17A/F heterodimer-induced IL-6 production by NHDF, EC50 [nM]	Binder
2	B3
